Measured values published in US9580487B2, “Method of treating stomach or bowel-related disorders by administering glucagon-like-peptide-2 (GLP-2) analogues” (Zealand Pharma A/S, priority 2005, dated 2017).
“Also recorded” adds a separate entry of the source. No end group written: not given here.

Key:
[1] = Chemical stability testing: incubation in HCl, NaOH, H2O2 or NH4HCO3 at 40° C., remaining purity by RP-HPLC; assay type: physicochemical; conditions: for Stability during acid hydrolysis (in words): 0.1 M HCl, 12 days; for Stability during acid hydrolysis (in words) / Purity H2O2 0.5% 3 days / Purity HCl 0.1M 12 days / Purity NH4HCO3 0.1M 6 days: 40° C.; for Purity H2O2 0.5% 3 days / Purity HCl 0.1M 12 days / Purity NH4HCO3 0.1M 6 days: 2 mg/ml, relative to the purity at T=0; for Purity H2O2 0.5% 3 days / Purity HCl 0.1M 12 days: RP-HPLC; for Purity NH4HCO3 0.1M 6 days: pH 8, RP-HPLC
Protocol: The GLP-2 analogues were dissolved in purified water and subsequently diluted in solutions containing HCl, NaOH, H2O2 or NH4HCO3. The solutions were incubated at 40° C. to produce hydrolysis, deamidation and oxidation products. The samples were analyzed by RP-HPLC and the percentage of remaining intact compound was determined as a measure for the relative stability. The major degradation products were tentatively identified by LC-MS.
The GLP-2 analogues tested and the reference Gly^2-GLP-2, ZP1559 (SEQ ID NO:54), were dissolved in water and subsequently diluted into solutions containing HCl, NaOH, H2O2 or NH4HCO3. The samples were incubated at 40° C. to generate hydrolysis, deamidation and oxidation products, respectively. The compounds were analysed by RP-HPLC for purity of the original main peak and by LC-MS for confirmation of the identity by mass of the main peak and major degradation products.
The GLP-2 analogues were first dissolved in MQW to a concentration of 4 mg/ml and then further diluted in the stress solutions at a 1:1 ratio (e.g. 125 μl plus 125 μl). The final concentrations were 2 mg/ml of the GLP-2 analogues for stress conditions with 0.1 M HCl, 0.01M NaOH, 0.1 M NH4HCO3 and 0.5% H2O2, respectively.
The solutions were incubated at 40° C. in the dark and then diluted in Eluent A to a concentration of 0.5 mg/ml (addition of 750 μl) prior to analyses by RP-HPLC and by LC-MS.
The RP-HPLC analyses were performed on an Agilent Series 1100 HPLC system under control of the ChemStation (Revision A.08.03 [847]) software from Agilent Technologies, Inc. The raw data and the results of the peak integration were deposited on the ChemStore C/S server by the use of Agilent Technologies Revision B01.03 software.
The results are shown in Table 9 as the compound purity measured by RP-HPLC after incubation under stress conditions. This purity is a measure for the remaining intact compound after incubation in stress solutions, relative to the purity measured a T=0.

male C57BL mice = test: Dose-response effect on intestinal growth (SI mass, SI-Colon Sensitivity Index, colon and stomach mass); assay type: in vivo; conditions: 5-405 nmol/kg s.c. b.i.d. for three days
Protocol: Values are means±SEM. *: P<0.05 relative to the equimolar dose of [Gly2]GLP-2 (SEQ ID NO:54).
FIG. 2 is a set of graphs showing full dose-response data of four small intestine selective compounds (compound nos. 1846 (SEQ ID NO:34), 1855 (SEQ ID NO:43), 1848 (SEQ ID NO:36), 1858 (SEQ ID NO:46)) on the Small Intestine (SI)-to-Colon Sensitivity Index mice relative to the non-selective reference compound [Gly2]GLP-2 (SEQ ID NO:54). Compounds were administered by subcutaneous injection b.i.d. for three days in C57BL mice at the following doses: 0 (vehicle), 5, 15, 45, 135, 405 nmol/kg (n=6/dose group). Responses at each dose level were compared with responses obtained at the same dose level in pair-treated mice treated with the non-selective reference compound [Gly2]GLP-2 (SEQ ID NO:54). The SI-Colon Sensitivity Index was calculated as SI-mass relative to colon mass and the Sensitivity Index at each dose level was normalized to the response observed with the non-selective reference compound [Gly2]GLP-2 (SEQ ID NO:54). […] Values are means±SEM. *: P<0.05 relative to the equimolar dose of [Gly2]GLP-2.
FIG. 4 is a set of graphs showing full dose-response data of three small intestine selective compounds (compound nos. 1857 (SEQ ID NO:45), 1820 (SEQ ID NO:10), and 1849 (SEQ ID NO:37)) on the Small Intestine (SI)-to-Colon Sensitivity Index mice relative to the non-selective reference compound [Gly2]GLP-2 (SEQ ID NO:54). Compounds were administered by subcutaneous injection b.i.d. for three days in C57BL mice at the following doses: 0 (vehicle), 5, 15, 45, 135, 405 nmol/kg (n=6/dose group). Responses at each dose level were compared with responses obtained at the same dose level in pair-treated mice treated with the non-selective reference compound [Gly2]GLP-2 (SEQ ID NO:54). The SI-Colon Sensitivity Index was calculated as SI-mass relative to colon mass and the Sensitivity Index at each dose level was normalized to the response observed with the non-selective reference compound [Gly2]GLP-2 (SEQ ID NO:54). […] Values are means±SEM. *: P<0.05 relative to the equimolar dose of [Gly2]GLP-2 (SEQ ID NO:54).
Compounds were administered by subcutaneous injection b.i.d. for three days in C57BL mice at the following doses: 0 (vehicle), 5, 15, 45, 135, 405 nmol/kg (n=6/dose group). […] Values are means±SEM. *: P<0.05 relative to the vehicle.
The dose-response effect of 1820 (SEQ ID NO:10), 1855 (SEQ ID NO:43), ZP1846 (SEQ ID NO:34), 1858 (SEQ ID NO:46), 1849 (SEQ ID NO:37), 1848 (SEQ ID NO:36), and 1857 (SEQ ID NO:45) on small intestinal mass was determined in male C57BL mice. Individual groups (n=6) of mice were given 5, 15, 45, 135 or 405 nmol/kg of each compound, s.c, twice daily for three consecutive days. For comparison purposes other groups of animals were given either equimolar doses of [Gly2]GLP-2 (SEQ ID NO:54) or vehicle (phosphate buffered saline, pH 7.4) in the same dosing regimen. Twenty-four hours after the last dose of compound had been given the mice were sacrificed and the small intestine (from the pylorus to the cecum emptied and weighed to determine the effect on small intestinal mass.

Substance	Stability during acid hydrolysis (in words) [1]	Purity H2O2 0.5% 3 days [1] [%]	Purity HCl 0.1M 12 days [1] [%]	Purity NH4HCO3 0.1M 6 days [1] [%]	SI-Colon Sensitivity Index (SI mass relative to colon mass) relative to [Gly2]GLP-2 (male C57BL mice)	Small intestinal mass (SI-BW ratio), maximal response relative to [Gly2]GLP-2 (male C57BL mice)	Growth stimulation of small intestine, colon and stomach mass (male C57BL mice; vs vehicle)	Stability under accelerated oxidation (in words) ([1]; 0.5% H2O2, 40° C., 3 days)
[Gly2, Glu3, Leu10, Ser11, Ala16,24,28]hGLP-2(1-33)-NH2 [Compound 1857]	tendency of slightly higher stability	59	86	96	increased maximal small intestinal sensitivity relative to [Gly2]GLP-2; also recorded: increased selectivity for causing growth of the small intestine relative to the colon	maximal responses that were significantly greater than [Gly2]GLP-2	–	–
[Gly2, Glu3, Ser8,11, Leu10, Ala16,24,28]hGLP-2(1-33)-(Lys)6-NH2 (HGEGSFSSELSTILDALAARDFIAWLIATKITDKKKKKK-NH2) [Compound 1846]	–	64	70	82	increased maximal small intestinal sensitivity relative to [Gly2]GLP-2; also recorded: increased selectivity for causing growth of the small intestine relative to the colon	maximal responses that were significant greater than [Gly2]GLP-2	–	–
[Gly2, Glu3, Thr5, Ser8, Leu10, Ala11,16,24,28]hGLP-2(1-33)-(Lys)6-NH2 (HGEGTFSSELATILDALAARDFIAWLIATKITDKKKKKK-NH2) [Compound 1848]	–	68	63	93	increased maximal small intestinal sensitivity relative to [Gly2]GLP-2; also recorded: increased selectivity for causing growth of the small intestine relative to the colon	maximal responses that were significant greater than [Gly2]GLP-2	only produced dose-dependent growth stimulation in the small intestine	–
[Gly2, Glu3, Thr5, Ser8, Leu10, Ala11,16,24,28]hGLP-2(1-33)-NH2 [Compound 1855]	tendency of slightly higher stability	14	85	97	increased maximal small intestinal sensitivity relative to [Gly2]GLP-2; also recorded: increased selectivity for causing growth of the small intestine relative to the colon	maximal responses that were significant greater than [Gly2]GLP-2	–	unexplainable low stability
